Assay results taken from patent US20230374502A1.

Molecular target: SpCas9 (Streptococcus pyogenes Cas9) (Streptococcus pyogenes) (UniProt Q99ZW2)
Test: cell-based or functional assay

In the case of “Acx105 (AcrIIA4, wild type; AcrIIA4_lmo)”, the indel frequency (TIDE), OFF - R1, sample E2A-F2A - Acx-105 is reported as 1%, the indel frequency (TIDE), OFF - R1, sample EMCV IRESV5 is reported as 6.6% and the indel frequency (TIDE), OFF - R1, sample EMCV IRESV10 is reported as 5%. The indel frequency (TIDE), OFF - R1, sample EMCV IRESV15 was 15.8%, the indel frequency (TIDE), OFF - R1, sample EMCV IRESV21 was 12.2% and the indel frequency (TIDE), OFF - R1, sample EMCV WT IRES was 2.3%. It also gave an indel frequency (TIDE), OFF - R1, sample F2A - Acx-105 of 0.8%, an indel frequency (TIDE), OFF - R1, sample T2A - Acx-105 of 1.3% and an indel frequency (TIDE), OFF - R1, sample T2A-E2A-F2A - Acx-105 of 0.7%. The indel frequency (TIDE), ON - R1, sample E2A-F2A - Acx-105 was 2.7%, the indel frequency (TIDE), ON - R1, sample EMCV IRESV5 was 12.5% and the indel frequency (TIDE), ON - R1, sample EMCV IRESV10 was 26.5%. The indel frequency (TIDE), ON - R1, sample EMCV IRESV15 was 54.3%, the indel frequency (TIDE), ON - R1, sample EMCV IRESV21 was 50% and the indel frequency (TIDE), ON - R1, sample EMCV WT IRES was 1.2%. It also gave an indel frequency (TIDE), ON - R1, sample F2A - Acx-105 of 1.2%, an indel frequency (TIDE), ON - R1, sample T2A - Acx-105 of 3.4% and an indel frequency (TIDE), ON - R1, sample T2A-E2A-F2A - Acx-105 of 4.5%. For the same substance, the indel frequency, OFF - R1, Acr start codon ACG was 13.5%, the indel frequency, OFF - R1, Acr start codon AUA was 9.8% and the indel frequency, OFF - R1, Acr start codon AUG was 1.4%. For the same substance, the indel frequency, OFF - R1, Acr start codon CUG was 7.8%, the indel frequency, OFF - R1, Acr start codon GUG was 9.5% and the indel frequency, OFF - R1, Acr start codon UUG was 11.7%. For the same substance, the indel frequency, ON - R1, Acr start codon ACG was 32.5%, the indel frequency, ON - R1, Acr start codon AUA was 25.4% and the indel frequency, ON - R1, Acr start codon AUG was 5.6%. It also gave an indel frequency, ON - R1, Acr start codon CUG of 22.3%, an indel frequency, ON - R1, Acr start codon GUG of 26.3% and an indel frequency, ON - R1, Acr start codon UUG of 27%. The inhibition of OFF target editing, Acr start codon CUG was 50%, the inhibition of ON target editing, Acr start codon CUG was 36% and the reduction of SpCas9 editing, Acr start codon AUG was > 80%.

Substance Acx137 (AcrVA1, wild type; AcrVA1_mbo) has an indel frequency (TIDE), OFF - R1, sample EMCV WT IRES - Acx137 of 7.9%, an indel frequency (TIDE), OFF - R1, sample T2A - Acx -137 of 11% and an indel frequency (TIDE), ON - R1, sample EMCV WT IRES - Acx137 of 38.8%. For the same substance, the indel frequency (TIDE), ON - R1, sample T2A - Acx -137 was 40.3%.
